The term Kd denotes a measure of binding affinity in units of concentration. High values mean weaker binding, low ones tighter binding. One may read the koff as the first-order rate constant of dissociation. The low end stands for slow dissociation, the high end for fast dissociation. As a reminder, the kon is the rate constant with which the complex forms. A word on the t½: it is how long it takes for the measured level to halve. Low values mean fast loss, high ones slow loss.

The chains are these.
B1: bsAb19139D (bispecific antibody, V domains shown)
VH 1: QVQLVESGGGVVQPGRSLRLSCTASGFTFSSYAMYWVRQAPGKGLEWVSVIYYDGSYKYYADSVKGRFTISRDNSKNTLYLQMDSLRAEDTAVYYCASYNWNYWYFDFWGRGTLVTVSS
VH 2: QVQLVESGGGVVQPGGSLRLSCAASGFTFSTYDIHWVRQAPGKGLEWVAVISFDGSNRNYGDSVKGRFTISRDNSDNTLFLEMNNLRFEDTAVYYCAKEGYGVDFQHWGQGTLVTVSS
VL: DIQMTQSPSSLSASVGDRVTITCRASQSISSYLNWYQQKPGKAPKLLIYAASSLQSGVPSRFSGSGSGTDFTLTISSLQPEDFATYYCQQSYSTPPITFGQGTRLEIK
notes: two different heavy chains with a common light chain
B2: bsAb19141D (bispecific antibody, V domains shown)
VH 1: B1 VH 1
VH 2: EVQLVESGGGVVRPGGSLRLSCTASGFTFDDYGMSWVRQAPGKGLEWVSGINWNGGRTEYADAVKGRFIISRDNAKNSLYLQMNSLRAEDTALYFCARTELRWDYWGQGTLVTVSS
VL: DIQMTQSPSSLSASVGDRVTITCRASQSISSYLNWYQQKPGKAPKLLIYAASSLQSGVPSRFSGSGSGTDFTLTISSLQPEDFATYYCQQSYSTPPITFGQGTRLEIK
notes: common light chain
B3: bsAb19140D (bispecific antibody, V domains shown)
VH 1: B1 VH 1
VH 2: QVQLQESGPGLVKPSETLSLTCTVSGGSISNYYWTWIRQPPGKGLEWIGHISNSGTTNYNPSLKSRVTISVDTSKNQFSLKLTSVTAADTAVYYCARLPLGIAAVDTDYYYYFGMDVWGQGTTVTVSS
VL: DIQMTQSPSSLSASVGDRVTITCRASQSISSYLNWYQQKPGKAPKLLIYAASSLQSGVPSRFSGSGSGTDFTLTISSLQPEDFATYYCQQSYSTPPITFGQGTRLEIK
notes: common light chain

In one assay the target is T1, Macaca Fascicularis LEPR extracellular domain expressed with a C-terminal myc-myc-hexahistidine tag (Macaca fascicularis, UniProt Q9MYL0 22-837 (rhesus entry)).
T1 construct: Monomeric reagent; the whole entry is the construct with its tag; also called mfLEPR-MMH
T1 sequence (Q9MYL0 other isoform, or with tags, fused parts or gaps): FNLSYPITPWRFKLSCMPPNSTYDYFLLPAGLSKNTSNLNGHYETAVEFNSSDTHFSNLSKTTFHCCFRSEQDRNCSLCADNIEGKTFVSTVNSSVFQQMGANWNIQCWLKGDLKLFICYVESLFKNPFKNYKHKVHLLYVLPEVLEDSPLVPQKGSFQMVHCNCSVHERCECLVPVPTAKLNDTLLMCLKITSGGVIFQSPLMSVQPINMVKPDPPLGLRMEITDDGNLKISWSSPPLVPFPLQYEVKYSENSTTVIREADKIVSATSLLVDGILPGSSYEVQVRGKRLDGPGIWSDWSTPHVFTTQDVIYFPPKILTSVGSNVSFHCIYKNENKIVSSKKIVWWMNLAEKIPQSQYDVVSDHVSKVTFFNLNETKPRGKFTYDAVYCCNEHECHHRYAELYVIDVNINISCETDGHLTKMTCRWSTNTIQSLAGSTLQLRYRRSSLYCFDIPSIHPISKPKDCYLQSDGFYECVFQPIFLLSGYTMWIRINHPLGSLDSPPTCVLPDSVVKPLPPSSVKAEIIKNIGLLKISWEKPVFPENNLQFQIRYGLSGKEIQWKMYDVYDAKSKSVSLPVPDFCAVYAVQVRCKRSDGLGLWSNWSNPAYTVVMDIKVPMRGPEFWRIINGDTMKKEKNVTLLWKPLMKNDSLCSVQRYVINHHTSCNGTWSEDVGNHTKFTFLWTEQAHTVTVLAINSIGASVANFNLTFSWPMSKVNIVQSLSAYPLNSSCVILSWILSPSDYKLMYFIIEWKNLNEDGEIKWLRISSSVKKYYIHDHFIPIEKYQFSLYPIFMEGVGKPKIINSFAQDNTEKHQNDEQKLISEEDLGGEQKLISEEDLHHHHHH
The assay is described as follows: SPR Biacore 4000, bsAb captured by anti-human Fc, 37 C. As for the experimental part: (§1) Equilibrium dissociation constants (KD values) for LEPR and GP130 binding to purified anti-LEPR/GP130 bispecific antibodies were determined using a real-time surface plasmon resonance biosensor using a Biacore 4000 instrument. All binding studies were performed in 10 mM HEPES, 150 mM NaCl, 3 mM EDTA, and 0.05% v/v Surfactant Tween-20, pH 7.4 (HBS-ET) running buffer at 25° C. and 37° C. The Biacore sensor surface was first derivatized by amine coupling with a monoclonal mouse anti-human Fc antibody (GE, #BR-1008-39) to capture anti-LEPR/GP130 bispecific antibodies. […] Different concentrations of LEPR or GP130 reagents were first prepared in HBS-ET running buffer (100 nM-3.7 nM; 3-fold serial dilution) and were injected over anti-human Fc captured anti-LEPR/GP130 bispecific antibody surface for 4 minutes at a flow rate of 30 μL/minute, while the dissociation of bispecific antibody bound LEPR or GP130 reagent was monitored for 10 minutes in HBS-ET running buffer. Kinetic association (kₐ) and dissociation (kd) rate constants were determined by fitting the real-time binding sensorgrams to a 1:1 binding model with mass transport limitation using Scrubber 2.0c curve-fitting software. Binding dissociation equilibrium constants (KD) and dissociative half-lives (t ½) were calculated from the kinetic rate constants as: […]
Turning to B1, the “100 nM mfLEPR-MMH Bound (RU)” value was determined as 163 RU; the affinity, expressed as Kd, was 5.42 nM; the koff was determined as 0.000559 s⁻¹; the kon turned out to be 103000 M⁻¹ s⁻¹. The molecule further displayed a t½ of 21 min.

In the case of B2, the “100 nM mfLEPR-MMH Bound (RU)” value came out at 173 RU, binding was put at a Kd of 5.05 nM, the dissociation rate constant (koff) was 0.000522 s⁻¹ and the association rate constant (kon) is 103000 M⁻¹ s⁻¹. In addition, the t½ came to 22 min.

For the molecule B3, the “100 nM mfLEPR-MMH Bound (RU)” value was determined as 175 RU, binding was characterised by a dissociation constant (Kd) of 5.6 nM, the koff stood at 0.000572 s⁻¹ and the association rate constant (kon) is 102000 M⁻¹ s⁻¹. The same molecule showed a t½ of 20 min.

In a further assay the target is T2, human LEPR extracellular domain expressed with a C-terminal myc-myc-hexahistidine tag (human, UniProt P48357 22-839).
T2 construct: Monomeric reagent; the whole entry is the construct with its tag; also called hLEPR-MMH; hLEPR.mmh
T2 sequence (P48357 other isoform, or with tags, fused parts or gaps): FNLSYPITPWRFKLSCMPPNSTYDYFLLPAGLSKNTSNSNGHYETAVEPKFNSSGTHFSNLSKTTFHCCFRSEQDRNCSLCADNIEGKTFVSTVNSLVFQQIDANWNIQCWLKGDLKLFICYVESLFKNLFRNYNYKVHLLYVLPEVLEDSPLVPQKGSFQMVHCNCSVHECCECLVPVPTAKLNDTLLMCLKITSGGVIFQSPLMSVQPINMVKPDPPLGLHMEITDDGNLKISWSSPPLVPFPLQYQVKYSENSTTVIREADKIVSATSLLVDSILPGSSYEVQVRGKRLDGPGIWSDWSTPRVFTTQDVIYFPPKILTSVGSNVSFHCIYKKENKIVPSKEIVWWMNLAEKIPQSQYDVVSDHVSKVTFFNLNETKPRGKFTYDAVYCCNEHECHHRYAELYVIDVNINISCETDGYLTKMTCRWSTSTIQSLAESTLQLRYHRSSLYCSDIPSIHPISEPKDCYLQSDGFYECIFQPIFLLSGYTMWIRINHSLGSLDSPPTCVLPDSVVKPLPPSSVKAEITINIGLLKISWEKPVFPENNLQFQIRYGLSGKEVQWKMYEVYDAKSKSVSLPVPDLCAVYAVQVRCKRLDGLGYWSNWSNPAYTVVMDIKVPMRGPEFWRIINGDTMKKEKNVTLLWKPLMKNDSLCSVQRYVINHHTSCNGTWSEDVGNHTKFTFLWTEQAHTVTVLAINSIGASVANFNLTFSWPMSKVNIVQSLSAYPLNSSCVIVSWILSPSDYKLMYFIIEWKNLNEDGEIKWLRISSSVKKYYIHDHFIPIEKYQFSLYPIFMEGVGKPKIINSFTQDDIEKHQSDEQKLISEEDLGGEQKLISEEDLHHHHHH
The description is as above. The method, then: as §1
As for B1, the “100 nM hLEPR-MMH Bound (RU)” value was determined as 67 RU, binding was put at a Kd of 21.2 nM, the off-rate constant (koff) came out at 0.000762 s⁻¹ and the on-rate (kon) is 35800 M⁻¹ s⁻¹. The same molecule came in with a t½ of 15 min.

Regarding B2, the “100 nM hLEPR-MMH Bound (RU)” value was determined as 74 RU, the Kd was 16.6 nM, the off-rate (koff) was 0.000589 s⁻¹ and the kon stood at 35400 M⁻¹ s⁻¹. Further, the t½ worked out at 20 min.

For the molecule B3, the “100 nM hLEPR-MMH Bound (RU)” value was found to be 75 RU, the equilibrium dissociation constant (Kd) amounted to 21.4 nM, the off-rate constant (koff) is 0.000818 s⁻¹ and the kon is 38200 M⁻¹ s⁻¹. Also, the t½ is 14 min.

The target in a further assay is T1, Macaca Fascicularis LEPR extracellular …. Kind of assay: SPR Biacore 4000, bsAb captured by anti-human Fc, 25 C. As for the experimental part:
as §1
For orientation: Surface plasmon resonance follows binding to a sensor surface in real time, without labels.
Regarding B1, the “100 nM mfLEPR-MMH Bound (RU)” value came out at 103 RU, the equilibrium dissociation constant (Kd) worked out at 2.93 nM, the koff amounted to 0.000128 s⁻¹ and the kon came out at 43600 M⁻¹ s⁻¹. This molecule also showed a t½ of 90 min.

With B2, the “100 nM mfLEPR-MMH Bound (RU)” value amounted to 110 RU, binding was put at a Kd of 2.86 nM, the koff is 0.000124 s⁻¹ and the kon is 43300 M⁻¹ s⁻¹. In addition, the t½ stood at 93 min.

Turning to B3, the “100 nM mfLEPR-MMH Bound (RU)” value was 112 RU, binding was put at a Kd of 2.69 nM, the off-rate constant (koff) came out at 0.000121 s⁻¹ and the on-rate (kon) was determined as 45000 M⁻¹ s⁻¹. The molecule also gave a t½ of 95 min.

For the next assay, the target named is T2, human LEPR extracellular domain …. Described as above. As for the experimental part:
as §1
Take B1: the “100 nM hLEPR-MMH Bound (RU)” value was 41 RU, the Kd is 7.09 nM, the koff was 0.000171 s⁻¹ and the association rate constant (kon) worked out at 24100 M⁻¹ s⁻¹. Moreover, the t½ came out at 68 min.

In the case of B2, the “100 nM hLEPR-MMH Bound (RU)” value was determined as 45 RU; the affinity, expressed as Kd, was 5.91 nM; the koff is 0.000151 s⁻¹; the kon was 25400 M⁻¹ s⁻¹. Moreover, the t½ stood at 77 min.

Turning to B3, the “100 nM hLEPR-MMH Bound (RU)” value came out at 47 RU, the Kd was found to be 7.36 nM, the koff was 0.00018 s⁻¹ and the on-rate (kon) worked out at 24500 M⁻¹ s⁻¹. The same molecule gave a t½ of 64 min.
